Results on two molecules are retold here after patent publication US20110065652A1.

Bridge positions count the residues as written; N and C are the ends. Square brackets hold non-standard residues; d marks the D form. Orn = NCCC[C@H](N)C(=O)O; Dab = NCC[C@H](N)C(=O)O

Assay [1] addresses human recombinant melanocortin-4 receptor (hMC4-R) (human) (UniProt P32245). As to the kind of experiment: competitive binding against [I125]-NDP-α-MSH, HEK-293 hMC4-R membranes.
In assay [2] the target is human recombinant melanocortin-5 receptor (hMC5-R) (human) (UniProt P33032). The experiment in a line: competitive binding against Eu-NDP-α-MSH, HEK-293 hMC5-R membranes.
The target of assay [3] is melanocortin-1 receptor (MC1-R), endogenous in B-16 mouse melanoma cells (mouse) (UniProt Q01727). The experiment in a line: competitive binding against [I125]-NDP-α-MSH, B-16 mouse melanoma membranes.
In assay [4] the target is human recombinant melanocortin-4 receptor (hMC4-R) (human) (UniProt P32245). As to the kind of experiment: cell-based or functional assay.
Assay [5] has as its target human recombinant melanocortin-3 receptor (hMC3-R) (human) (UniProt P41968). The experiment in a line: competitive binding against labelled NDP-α-MSH (I125 or Eu), HEK-293 hMC3-R membranes.

Sequence of human recombinant melanocortin-4 receptor (hMC4-R) (human) (P32245 whole entry): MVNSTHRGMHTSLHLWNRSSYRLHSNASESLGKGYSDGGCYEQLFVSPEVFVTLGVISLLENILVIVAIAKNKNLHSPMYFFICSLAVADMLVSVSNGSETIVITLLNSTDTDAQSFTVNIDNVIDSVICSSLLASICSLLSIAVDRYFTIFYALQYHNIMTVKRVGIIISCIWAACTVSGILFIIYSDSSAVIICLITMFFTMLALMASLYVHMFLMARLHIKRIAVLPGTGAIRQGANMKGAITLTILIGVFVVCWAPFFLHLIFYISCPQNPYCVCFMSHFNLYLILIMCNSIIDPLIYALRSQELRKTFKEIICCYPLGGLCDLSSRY
Sequence of human recombinant melanocortin-3 receptor (hMC3-R) (human) (P41968 whole entry): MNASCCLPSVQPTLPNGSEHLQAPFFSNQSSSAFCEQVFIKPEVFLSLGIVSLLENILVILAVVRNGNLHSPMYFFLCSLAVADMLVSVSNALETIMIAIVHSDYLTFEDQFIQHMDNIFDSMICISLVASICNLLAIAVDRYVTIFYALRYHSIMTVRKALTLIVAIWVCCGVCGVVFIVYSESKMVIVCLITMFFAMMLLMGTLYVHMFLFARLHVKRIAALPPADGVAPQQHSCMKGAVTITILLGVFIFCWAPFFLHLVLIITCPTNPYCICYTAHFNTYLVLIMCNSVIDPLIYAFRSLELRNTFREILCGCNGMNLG
Sequence of melanocortin-1 receptor (MC1-R), endogenous in B-16 mouse melanoma cells (mouse) (Q01727 whole entry): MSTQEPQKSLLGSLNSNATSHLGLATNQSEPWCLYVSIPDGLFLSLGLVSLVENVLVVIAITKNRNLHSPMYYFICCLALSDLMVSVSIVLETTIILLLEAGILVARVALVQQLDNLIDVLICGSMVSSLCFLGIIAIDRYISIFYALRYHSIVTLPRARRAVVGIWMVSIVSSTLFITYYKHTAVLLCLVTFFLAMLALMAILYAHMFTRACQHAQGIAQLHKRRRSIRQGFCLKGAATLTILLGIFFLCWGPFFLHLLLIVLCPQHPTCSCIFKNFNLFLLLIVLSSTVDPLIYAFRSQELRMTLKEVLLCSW
Sequence of human recombinant melanocortin-5 receptor (hMC5-R) (human) (P33032 whole entry): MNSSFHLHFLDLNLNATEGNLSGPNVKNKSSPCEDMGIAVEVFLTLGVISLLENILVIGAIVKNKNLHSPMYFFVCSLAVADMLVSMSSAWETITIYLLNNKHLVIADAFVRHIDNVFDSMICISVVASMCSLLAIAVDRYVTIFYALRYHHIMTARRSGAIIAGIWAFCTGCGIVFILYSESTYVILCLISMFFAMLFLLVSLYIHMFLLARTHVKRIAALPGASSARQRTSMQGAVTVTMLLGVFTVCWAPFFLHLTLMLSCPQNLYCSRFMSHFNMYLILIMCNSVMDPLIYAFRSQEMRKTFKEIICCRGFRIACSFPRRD

B1: cyclic peptide of Example 8.4, Ac-Arg-cyclo(Glu-Dab-D-Phe-Arg-Trp-Orn)-OH (peptide)
peptide: Ac-RE[Dab][dF]RW[Orn]-OH
modifications: lactam 2-7; also: acetate and TFA salts
B1: the Ki (usually the dissociation constant of the complex between target and ligand, obtained from inhibition or displacement) in assay [1] came to 8 nM; in assay [2], 2370 nM; in assay [3], 4 nM; in assay [5], 410 nM. Moreover, in assay [4], the intrinsic activity (cAMP, NDP-α-MSH is 100%) was 91%.

B2: cyclic peptide of Example 8.3, Ac-Arg-cyclo(Glu-Dab-D-Phe-Arg-Trp-Orn)-NH2 (peptide)
peptide: Ac-RE[Dab][dF]RW[Orn]-NH2
modifications: lactam 2-7; also: TFA salt
For B2, the Ki in assay [1] is 0.65 nM; in assay [2], 300 nM; in assay [3] it was 1 nM; in assay [5], 74 nM. The EC50 (cAMP accumulation in HEK-293 cells expressing hMC4-R) in assay [4] turned out to be 0.3 nM. Also, in assay [4], the intrinsic activity (cAMP, NDP-α-MSH is 100%) came to 94%.
